Assay: soluble on expression in E. coli; label from the status in PepcDB or PDB records

Sequence | soluble on expression in E. coli
DTILCFGDCRPLHKEAKRWAKSKGIRFLAFEEGYLRPQFITVEEGGVNAYSSLPRDPDFYRKLPDMPAPHVENLKPSTMKRIGHAMWYYLMGWHYRHEFPRYRHHKSFSPWYEARCWVRAYWRKQLYKVTQRKVLPRLMNELDQRYYLAVLQVYNDSQIRNHSNYNDVRDYINEVMYSFSRKAPKESYLVIKHHPMDRGHRLYRPLIKRLSKEYGLDERVIYVHDLPMPELLRHAKAVVTINSTAGISALIHNKPLKVMGNALYDIKGLTYQGHLHQFWQADFKPDMKLFKKFRGYLLVKTQVNGGYY | not soluble
MGSDKIHHHHHHMKICLVSSMHPPHDKRVFDKEAVTLSSNGYKVLHLCPGTASDSGVFNDVEIVPYCRPSGIKGRLLQIFQLYRMANKINADVYHCNEVDSWFVGVLLKILRKKLCVFDVHEHYPSTFAESRFPKWIQPAVSSLVKLIFRLFLPFTDRLVLAKKSVSDDFPNSDSKKVLVRNFTPLSGINFTGVREVVPKGSDVTLIHLGLFGKIRGWPQTLEALKTMKQKNVRLVVIGDFNDGSRADFDSVVSAYGLNDRVVVYDWMPFEDAFKHLMQAHIGLVVFQPGILNHVYAMPHKMFDYMAAGMAVICPEFAMEVAPFVKEAKCGLLVDTANPADLAKKLDELVSSPDLIHEMGVRAQKAVQQHYNWEAEAKHLIQMYKELEELQ | not soluble
MAATCSWKTCEETEQNTFIVKFSNGNVKNAEELDFTVFKHSNASNPRKKNRRIVVADSDRLPYVGSNFGSGSLQSNNMCKYFVGVLDKQTMQMKVHSAQLFNMLPVIPGEATEAESENQPSTFRDKVDALIEAFGTNKQKRALSSRRLNAVGNETLHQAVAQAASNIIDQKGVEALRNEVIETEAQSDAALFLPPCNANADKLEDVYPFDQLLTPNEFESLKEVGAKYATLSSEDLQKMRDNHCPQTVLKHLETLSKDEADRDRQCRCAWYLSFVIRASLQKRISFKFGSDDGCPRIIINKVLKNFTVESFHNGSLRNTVSMSMRMKMASYCLALLLHMGGQTANLTLLHRDMSISENKMLEVAKAMGLTLSRQNALGKEGGLIEDEHRMVSLVLPLVHYDRRTERKKRKRMN | soluble
MVRIALEGELFKGVTSLLDQADRTAGAEIFSALYELNDPRGLEVRLQAHDHGDPKIRNVVLGNERGKKNGVEVDDADSDNRHNLHAAGVNVTDRILPDGSIPHNKFMVLEENGKPTKVLTGSTNWTSTGLATQTNNTLIIKSPLVAARYKEYWTSVKHFSELGADAPKKLQDPLEHHHHHH | not soluble
MLESSLTFLLLPVGFPGEVLVTLARRAREAMPVPSLWLASTDPLEPPIEAYSWERMQFDAEKVNEHIHSVLYDYVREGIRIIGVVDADGYIPGFNFVFGLASTALGVATVYTRRLKTGGNGLYTERLLKEVLHEAGHLLGLDHCSNRECVMSFSRSVEEVDRKAPLFCSSCKAKLVLKYGSRGQLEHHHHHH | soluble
MSLEYNDVVEAVISALKKAHTELPEDVVTAIKKAYDSEENDIAKRNLEAILKNIEAAKKLGVPMCQDTGIPVFFVEVGRELCLDFDLKEAIVEGVRKATAEIPLRPNAVHPITRENSGDNTGLGIPQINVELVKGDELRMVVMPKGAGSENVSALKMMLPTQVDKIKDFVVETVKNAGGKPCPPIFVGVGVGSTFDGAAKLAKKALLRNVLEMNDFELELLEAVNELGIGAMGLGGKYTALAVLVEFGHCHTASLPVAVNIQCWANRRAEVVLREGGSHHHHHH | soluble
NSDSMILVTVNPKTKKTTMTSLERDTLTTLSGPKNNEMNGVEAKLNAAYAAGGAQMAIMTVQDLLNITIDNYVQINMQGLIDLVNAVGGITVTNEFDFPISIAENEPEYQATVAPGTHKINGEQALVYARMRYDDPEGDYGRQKRQREVIQKVLKKILA | not soluble
MKRVLVVDDEESITSSLSAILEEEGYHPDTAKTLREAEKKIKELFFPVIVLDVWMPDGDGVNFIDFIKENSPDSVVIVITGHGSVDTAVKAIKKGAYEFLEKPFSVERFLLTIKHAFEEYSKKAPPQEEIEFVGEHPKILEIKRLIPKIAKSKAPVLITGESGTGKEIVARLIHRYSGRKGAFVDLNCASIPQELAESELFGHEKGAFTGALTRKKGKLELADQGTLFLDEVGELDQRVQAKLLRVLETGSFTRLGGNQKIEVDIRVISATNKNLEEEIKKGNFREDLYYRLSVFQIYLPPLRERGKDVILLAEYFLKKFAKEYKKNCFELSEETKEYLMKQEWKGNVRELKNLIERAVILCEGEVIKPEDLGLKEKSWRDLSYLLKIKELKEAKKEFEKIFIEEKLREYDYDLKRTAEEIGIDLSNLYRKIKSLNIRVKSS | soluble
MSLDNKRRFALVGTGNRGTTMWGRDLLAGWRGLVDLVAIADTNALRAERARTMIATNAPVYGNVDAMLAETRPDLVIVCTPDDTHDDIVVRALESGADVITEKPMSTTVEKIRRILDAEKRTGRRVDVSFNYRFAPTAARIKELLNAGEIGRVTSVDFHWYLDTRHGADYFRRWHAYAEHSGSLFVHKATHHFDLLNWYLDSDPEAVSAFADLQMYGRRGPFRGPRCKLCPHKSECDFYLDLEADPFLDSLYEEPSEIDSYFRDGCVFREDIDIPDTMVANIRYRNDVHVSYSLNTFQPIEGHHIAFNGTKGRIELRQYEDQPWETPPEDEILLVRNFPKGKPAMERITVPHFPGGHYGGDDRLRNTLFEPDAKDPLGQRAGARAGAMSVLCGIAALQSSRTGKIVRLADLMPELFTDGAQPMRERLKETCSREGHHHHHH | soluble
MAHHHHHHMGSKHPRGSTSAPAHEEEQQAHVDTEHHTEPPSFTAGPEVAEMQVTVTPTMPPTSMEQASMTVSGEGPSTLAVPKQQHLRHKSFTMTEVQQLISVNPDRTLVIIRDKVYDVTTFLASHPGGKSALRRNNGKDVTDAFFSMHSAMAVRKLPDFLIGELAPPESTSAAGEETPTAALVPARLRMADITKALSEDLNRIILILFSDAYDVTSMRDKHPGGLSVLVNNNGRECGDTFMRIHGLLAKEMVKQFYLGPVEGLAQGRSPLRPAVAAEVESTAITPAGPKAQSTRILEIESVNSTVTIRYFTFSCPKPLYMIPGGHIKLYSNLHEKESRFYTPFKTGVSSFTICMKHYPNGRTSGYLFDLKEGDEVFFDGPLPPSWQLNTDAAVQRAAPEERHVVLVGGGTGIAPLYSMSSNALETQFSSVTLVCSVRTPDDLILATELRQLANRYSTALPIQKHTLRIVLLFSRASPQDISVESTSFASHVLCGGRLTAESFKGTEIHPAQAVVVCGPPTFNDAVAAAVLEAGICTATQVHHL | not soluble
MGSDKIHHHHHHAGCETEGEDIDMRFETCTVSFVQQELRSSYEVYFNGEKSINRSTSVKKNSTLKLEVYKIGEKQPELSQEITLDNSKDIELLKLVGRDIAISSSLEEYTTFTPIISYFNPNTDLYTVTFNNGELSNKVKNYIAEADLSGTLKIVRNVDGQVLYEQDMTIMPEGQFSLMQLSDTDFLDISDGEEADPESRQYTKIRFFYTADAFPGHDKLKLVVYLMDLDAMQFTAPIATIDLEAGKISEYIQIDNDAFGQGVVNGVYDLIDESGNMIVNNLEHFNTSIPIGTSDNKFMTFRFMDPSHQGGDNVQCNFILSTPWK | not soluble
ELYSALANKCCHVGCTKRSLARFC | soluble
MSSSRNFDLEYDDYKERRNAAGMGSRASSRNGGRFKPIDKEKEKEKKEIGDYGLPKNEYKMQGYDERSSDVGADPLASVRTLRNNLRVMSLEHRDKDEPVKSHLCQSACDDLSKAEKQLVDLSHKRSDAVVRGDSRQAEQIAKDMDRVKSDAIRNAYSDLMMEDGTMKAFGVNSKWTPDKNPMPSDDWKPMTPMKPRKRAETPKGRKTESRQSNRGNNDNGDQRMTSKATTRSPERRVIPTEPSKPKTTRKNQRLSTIGHVPEAIPVVDTPLPGGSTVQDDPYKMPTYVGRCPHCQLTESGLGRAGGMEKHFAKYCKVMTSCKYCMKLTMVSQLTDHLIYRCEFLQDTMEACNDCGLAIEKEDQKRGGSHPMCRGRRPPTGAQWCPLCTIAVEDNEENWREHLLNNCYNNQRRDGPEKDPWEMKQEQEDILLGAKEKKKREMEEEERLKKEAEIRRQQQQVVVNNTGYPGKMIDADKLVVALQEIQERKKAEKKKKLKDIEKET | not soluble
AKTPVREILLFDSDEFLQHNAFRAPGAPTLEALRDAEKKVEYFKSIYSNMHKRISTSSTYIDEENLELLNGVTFAFICIDAGTSKKSIVQKLEELDIPFVDVGM | not soluble
SMSPEPDCQKQFQAAVSVIQNLPKNGSYRPSYEEMLRFYSYYKQATMGPCLVPRPGFWDPIGRYKWDAWNSLGKMSREEAMSAYITEMKLVAQKVIDTVPLGEVAE | soluble
MGSDKIHHHHHHMRTMVAVRLRNLVESDRERLLIWRNSPDVSAYMYSDHKIGHEEHDHWFDVARHDPRRRYWIIEADGEPVGLANLADIDLVHRRCAWAYYLASPKVRGLGVGSFVEFQIIEYVFNQLHLNKLWCEVLISNESVWRLHELYGFQREALFRQHVMKQGHEVDVIGLGLLASDWAARRDAMAERLCAKGYTIPDLTCRAA | not soluble
GPGSMSSSAPLSTQQPAPLPLQRQQQQQSTQSMLDAIRQQGWGSASSGGGDAMPSDASSRGMEGHSGAKLACPQMHEGHSAISSRPFNSEGADKPFAAVAATREASEAAKNSYDSMQPSADSQQLRGAEGECALPGHANAAAAAATLRNTNGVCEAIVTAARYGRSMEPSASVPAVTATAALVNVVAEEKERRRLSGPFGSYSTTDEVFHQKCNDVQRGSAIESADSRTDASGGALVVSPAYAAVPARVSEAPSPVDAEMQQLLADARRAYTAAEERLLSDGLALREDWMGTRDLFFAAGSLFAAVGEAADAARCLLHATFINRAFQNDSEAMVTLAMSVEQLKQSHPRIAVDSLLRLAPCYAQQDLRYQAARCHRDAAEILENILEAKEEAVVQYRAALDMYAETKVAAAETARRWERQQQQQRTAAIWGDLTGTPPLPPSAGASATNGDLTSPTAPGGVEATSLGSEQPFVSPKSTAPVPSSGGDSLTSSVNGQKPHSLEFPAHGPPQYRVSTTVQRSLADSCRWRLMILLTLLGRYDEAREAALDCAANVPRTLPKTKYLLYATLCVLARGASVKTDSTANSVSDPAAAAEAAQAPETPTTPFTAAAADTVYFDSLYDTEKFFLGLQDEDRTFQRGKENALVRALLAANRACSLTAFDEAVRAYKEYSTTEPCAAFELLAGECRRSLFEHMERFA | not soluble
MITTRLHGRLGNQMFQYAAARGLAARLGTQVALDTRLAESRGEGVLTRVFDLDLAQPDQLPPLKGDGLLRHGAWRLLGLAPRFRREHGLGYNAAIETWDDGTYLHGYWQSERYFAHIAARIRADFAFPAFSNSQNAEMAARIGDTDAISLHVRRGDYVALAAHTLCDQRYYAAALTRLLEGVAGDPVVYLFSDDPAWARDNLALPVQKVVVDFNGPETDFEDMRLMSLCRHNIIGNSSFSWWAAWLNAHPGKRIAAPASWFGDAKLHNPDLLPPDWLKIEVLEHHHHHH | not soluble
MGSDKIHHHHHHMRLEELVNNNYNKLNENDLHIWKYICCNKRECCTISIDELAKKCNISRTTISRFTQKLSLEGFGEFKVRLKLELGVSNNFKSSSVEDVYQDYYKTIKDMKEKDFLEICRMIYGAKHLFVYGTGAVQIAAANELKRHFISVNKFFVTVHGEAEMNMVLETATDEDLIVIISLSGEKKSAVEYLKKVKVKNIPSISITKLSDNSIARLCDENLYIITRNIKIEGVVTCENVGQYFILIEILFLKYITYLGQLKKEDTIS | not soluble
MLDVPVLLAAVSPDSPCGDDLEYDAAFLELERIAQGQPERQMGDAVLPAEPPEWPRVRALASELFGRSKDLRVANLLLQSNVALDGLDGLADGLLLVRELLGQYWDGVYPLLDADDDNDPTFRINALTGLVAEPLLQLVWAIPLVRSRAFGPVNLRAALNAAGLQRFASETLSPEQIAGAFADADADALAATRRALDGAQEHALAIESGVAERVGSAQGLDLGPLRQLLRQALQVFDLYGPQGAGESLAPGAEAVADEQVGAAPVAAVAAPAPRASGEIANREDVLRQLDRLLEYYVRHEPSSPVPVLLKRAKTLVTADFAEIVRNLIPDGISQFETLRGPESE | not soluble
